As a reminder, the Kd is the constant that tells how readily two partners part at equilibrium. A high value points to a looser complex. As a reminder, the koff is the first-order rate constant of dissociation. A high value points to a short-lived complex. By kon is commonly meant the rate constant with which the complex forms.

Test [1] concerns the target Tomato Leaf Curl Sudan Virus (ToLCSDV) purified viral particles (Tomato Leaf Curl Sudan Virus). Kind of test: SPR single-cycle kinetics, ToLCSDV captured at 185 RU.
For test [2] the target is unchanged. In words: SPR single-cycle kinetics, ToLCSDV captured at 405 RU.
Test [3] shares this target.
For test [4] the target is unchanged. In words: SPR single-cycle kinetics, ToLCSDV captured at 310 RU.

B1: Nb-To2 (VHH)
VHH: QVQLQESGGGSVQAGGSLRLSCVASGDTLRLCRMGWYRQAPGKGRELVSSMEIDGTTNYADSVKGRFTISQGDNRNTMYLQMNSLKPEDTAMYYCKMEGGYGGNCRLAIYNYWGQGTQVTVSS
In the case of B1, in test [1], the Kd stood at 0.292 nM, the koff worked out at 0.00135 s⁻¹ and the kon came to 4.65e+06 M⁻¹ s⁻¹. In test [2], the Kd was 0.432 nM, the koff came to 0.00161 s⁻¹ and the kon stood at 3.72e+06 M⁻¹ s⁻¹. In addition, in test [3], the A1 (% ToLCSDV Binding) is -0.842, the A2 (% ToLCSDV Binding) came out at 101, the EC20 (dilution of the NbTo2 sample) was 0.00459 and the EC80 (dilution of the NbTo2 sample) is 0.000613. In test [3], this molecule returned an LOGx0 (log(dilution NbTo2)) of -2.78, a p of -1.38 and a span (% ToLCSDV Binding) of 102. In test [4], this molecule gave a Kd of 0.374 nM, a koff of 0.00151 s⁻¹ and a kon of 4.05e+06 M⁻¹ s⁻¹.

The values above are taken from patent US10017560.
